Source: patent US20240150457A1

B1: P24E1102 (antibody, human IgG4 S228P, kappa, V domains shown)
VH: QVQLVQSGAEVKKPGSSVKVSCKASGFSLSSYAISWVRQAPGQGLEWMGVIWGNQNVYYAQKFQGRVTITADESTSTAYMELSSLRSEDTAVYYCARWKGYKDYPFDYWGQGTLVTVSS
VL: EIVLTQSPATLSLSPGERATLSCRASQNVYKWLDWYQQKPGQAPRLLIYNANTRATGIPARFSGSGSGRDFTLTISSLEPEDFAVYYCQQHHSGWTFGGGTKVEIKR

Legend:
[1] = biological target: Cynomolgus monkey PAR-2 on cells (cynomolgus monkey); experiment: cell-based or functional assay
[2] = biological target: Recombinant cynomolgus monkey PAR-2 (cynomolgus monkey); experiment: SPR (Biacore), antibody captured on Protein A chip, recombinant PAR-2 injected
[3] = biological target: Cynomolgus monkey PAR-2 on cells (cynomolgus monkey); experiment: cell-based or functional assay; remark: listed apart in the source

Row | Binder | IC50 mean, calcium flux at SLIGKV EC80 (Nomad line) [1] [nM] | IC50 mean, β-arrestin at SLIGKV EC80 (Nomad line) [1] [nM] | Kd [2] [nM] | SLIGKV EC80 mean, calcium flux [3] [nM] | SLIGKV EC80 mean, β-arrestin [3] [nM]
1 | B1 | 3.98 | 15.2 | 4.45 |  | 
2 | SLIGKV |  |  |  | 39000 | 107000
